Here are results for five molecules from patent US20100310635A1, “Compositions and Methods for Regulating T-Cell Activity” (priority 2007, published 2010).

“Also recorded” adds a separate entry of the source.

The test system of assay [1] is CD4+CD25− Teff cell proliferation. Put plainly: Suppression assay: suppression of Teff cell proliferation by transduced CD4+ cells expressing Foxp3 forms. It is filed as cell-based, mouse. To be noted: retrovirally transduced CD4+ cells expressing the Foxp3 form, co-cultured with CFSE-labeled CD4+CD25− T cells, 72 hr. The method, then:
Suppression assays—CD4+CD25+ (T-reg) and CD4+CD25− (T-eff) T cell and APC are isolated with magnetic beads following the manufacturer's instructions (Miltenyi). In some cases, 5×10^4 CD4+CD25− T cells were labeled with CFSE and stimulated with CD3 mAb (1 μg/ml) in the presence of irradiated syngeneic APC and varying ratios of activated CD4+ cells that had been transduced with different Foxp3 constructs. […] After 72 hours culture, cells were harvested and CD4+CD25− T cell proliferation was quantified by flow cytometry (Cyan) based on carboxylfluorescein diacetate succininyl ester (CFSE) profile of dividing effector T cells at 72 hr. Absolute numbers of effector T cells were determined by adding equal numbers of Dynabeads to each sample, and during FACS analysis gates were drawn on Dynabeads and collection time was based on set number of bead events for each sample. […]
WT Foxp3 and engineered Foxp3 mutants (N-terminal cleaved, C-terminal cleaved and N -plus C-terminal-cleaved (double-cleaved)) were retrovirally expressed in CD4+ cells and the ability of the transduced cells to suppress Teff cell proliferation was measured.

A further assay concerns RAG−/− (C57BL/6) mice. Put plainly: Adoptive transfer model of IBD. It is filed as in vivo, mouse. Conditions: for weight loss: 1×10^5 transduced Thy1.1+CD4+ cells plus 1×10^6 CD4+CD25− Teff cells i.p., weights monitored for 45 days; for histology of duodenal sections: duodenal samples collected at day 45, H&E. The source says:
Adoptive transfer model of IBD—CD4+CD25− T cells were isolated from mesenteric lymph nodes using magnetic beads (Miltenyi) to >95% purity (by flow cytometry). CD4+CD25− T cells (1×10^6 cells) were co-injected i.p. into RAG1−/− (C57BL/6) mice along with Thy1.1+CD4+CD25− cells transduced with WT or mutated Foxp3 ([…]). Mice were monitored biweekly for clinical evidence of disease, including weight loss and stool consistency. RAG1−/− mice on the C57BL/6 background were purchased from Taconic Laboratory. Mice were housed in specific pathogen-free conditions, and used for studies approved by the institutional animal care and use committee of the Children's Hospital of Philadelphia.
Pathology—Gut samples were paraffin embedded and stained by H&E, or snap-frozen and stained by immunoperoxidase using mAbs to Foxp3 and T cell subsets (73).
To test the effects of the different Foxp3 mutants in vivo, RAG−/− (C57BL/6) mice were injected with 1×10^5 transduced Thy1.1+CD4+ cells expressing either WT-Foxp3 or a mutant Foxp3 (RKKR• (SEQ ID NO: 179), QNKR• (SEQ ID NO: 180), QNKR-- (SEQ ID NO: 180)) or empty vector (control), plus 1×10^6 CD4+CD25− Teff cells. Additional mice received CD4+CD25− Teff cells alone. The weights of the animals in each group were monitored weekly for 45 days.

B1: C-cleaved PNNW mutant: short 417-aa Foxp3 in which the last four amino acids RKKR are replaced with PNNW (protein, UniProt Q99JB6 1-417, looked up, variant R414P K415N K416N R417W)
chain: MPNPRPAKPMAPSLALGPSPGVLPSWKTAPKGSELLGTRGSGGPFQGRDLRSGAHTSSSLNPLPPSQLQLPTVPLVMVAPSGARLGPSPHLQALLQDRPHFMHQLSTVDAHAQTPVLQVRPLDNPAMISLPPPSAATGVFSLKARPGLPPGINVASLEWVSREPALLCTFPRSGTPRKDSNLLAAPQGSYPLLANGVCKWPGCEKVFEEPEEFLKHCQADHLLDEKGKAQCLLQREVVQSLEQQLELEKEKLGAMQAHLAGKMALAKAPSVASMDKSSCCIVATSTQGSVLPAWSAPREAPDGGLFAVRRHLWGSHGNSSFPEFFHNMDYFKYHNMRPPFTYATLIRWAILEAPERQRTLNEIYHWFTRMFAYFRNHPATWKNAIRHNLSLHKCFVRVESEKGAVWTVDEFEFPNNW
Consider B1, for which the “suppression of Teff cell proliferation” value in assay [1] is given as “loss in the suppression ability”.

B2: QNKR•: short 417-aa Foxp3 mutant without C-terminal tail, terminating with QNKR (protein, UniProt Q99JB6 1-417, looked up, variant R414Q K415N)
chain: MPNPRPAKPMAPSLALGPSPGVLPSWKTAPKGSELLGTRGSGGPFQGRDLRSGAHTSSSLNPLPPSQLQLPTVPLVMVAPSGARLGPSPHLQALLQDRPHFMHQLSTVDAHAQTPVLQVRPLDNPAMISLPPPSAATGVFSLKARPGLPPGINVASLEWVSREPALLCTFPRSGTPRKDSNLLAAPQGSYPLLANGVCKWPGCEKVFEEPEEFLKHCQADHLLDEKGKAQCLLQREVVQSLEQQLELEKEKLGAMQAHLAGKMALAKAPSVASMDKSSCCIVATSTQGSVLPAWSAPREAPDGGLFAVRRHLWGSHGNSSFPEFFHNMDYFKYHNMRPPFTYATLIRWAILEAPERQRTLNEIYHWFTRMFAYFRNHPATWKNAIRHNLSLHKCFVRVESEKGAVWTVDEFEFQNKR
As to B2, in the assay on RAG−/− (C57BL/6) mice, the weight loss result was “negligible weight loss; also recorded: significantly more effective in controlling weight loss”; the “histology of duodenal sections” value was “minor mononuclear cell infiltration and edema”.

B3: double-cleaved Foxp3: engineered Foxp3 lacking N-terminal 51-aa and C-terminal tail (366-aa) (protein)
chain: SGAHTSSSLNPLPPSQLQLPTVPLVMVAPSGARLGPSPHLQALLQDRPHFMHQLSTVDAHAQTPVLQVRPLDNPAMISLPPPSAATGVFSLKARPGLPPGINVASLEWVSREPALLCTFPRSGTPRKDSNLLAAPQGSYPLLANGVCKWPGCEKVFEEPEEFLKHCQADHLLDEKGKAQCLLQREVVQSLEQQLELEKEKLGAMQAHLAGKMALAKAPSVASMDKSSCCIVATSTQGSVLPAWSAPREAPDGGLFAVRRHLWGSHGNSSFPEFFHNMDYFKYHNMRPPFTYATLIRWAILEAPERQRTLNEIYHWFTRMFAYFRNHPATWKNAIRHNLSLHKCFVRVESEKGAVWTVDEFEFRKKR
Consider B3, for which the “suppression of Teff cell proliferation” value in assay [1] is “suppressed Teff cell proliferation stronger than both WTFoxp3 and N-terminal-cleaved Foxp3”.

B4: WT-Foxp3: wild-type mouse Foxp3, 429-aa, retrovirally expressed in CD4+ T cells (protein)
chain: MPNPRPAKPMAPSLALGPSPGVLPSWKTAPKGSELLGTRGSGGPFQGRDLRSGAHTSSSLNPLPPSQLQLPTVPLVMVAPSGARLGPSPHLQALLQDRPHFMHQLSTVDAHAQTPVLQVRPLDNPAMISLPPPSAATGVFSLKARPGLPPGINVASLEWVSREPALLCTFPRSGTPRKDSNLLAAPQGSYPLLANGVCKWPGCEKVFEEPEEFLKHCQADHLLDEKGKAQCLLQREVVQSLEQQLELEKEKLGAMQAHLAGKMALAKAPSVASMDKSSCCIVATSTQGSVLPAWSAPREAPDGGLFAVRRHLWGSHGNSSFPEFFHNMDYFKYHNMRPPFTYATLIRWAILEAPERQRTLNEIYHWFTRMFAYFRNHPATWKNAIRHNLSLHKCFVRVESEKGAVWTVDEFEFRKKRSQRPNKCSNPCP
With B4, the survival entry with RAG−/− (C57BL/6) mice (1×10^5 transduced CD4+ cells plus 1×10^6 CD4+CD25− Teff cells, 45 days) is recorded as “survived”. Also, in the assay with RAG−/− (C57BL/6) mice, the weight loss result is given as “minor weight loss; also recorded: benefit”; the “histology of duodenal sections” value was “mild cell mononuclear cell infiltration and edema within villi; also recorded: mild mononuclear cell recruitment and villous edema”.

B5: QNKR--: 429-aa Foxp3 with RKKR replaced by QNKR, intact C-terminal tail resistant to proteolytic cleavage (protein, UniProt Q99JB6 1-429, looked up, variant R414Q K415N)
Forkhead box protein P3: MPNPRPAKPMAPSLALGPSPGVLPSWKTAPKGSELLGTRGSGGPFQGRDLRSGAHTSSSLNPLPPSQLQLPTVPLVMVAPSGARLGPSPHLQALLQDRPHFMHQLSTVDAHAQTPVLQVRPLDNPAMISLPPPSAATGVFSLKARPGLPPGINVASLEWVSREPALLCTFPRSGTPRKDSNLLAAPQGSYPLLANGVCKWPGCEKVFEEPEEFLKHCQADHLLDEKGKAQCLLQREVVQSLEQQLELEKEKLGAMQAHLAGKMALAKAPSVASMDKSSCCIVATSTQGSVLPAWSAPREAPDGGLFAVRRHLWGSHGNSSFPEFFHNMDYFKYHNMRPPFTYATLIRWAILEAPERQRTLNEIYHWFTRMFAYFRNHPATWKNAIRHNLSLHKCFVRVESEKGAVWTVDEFEFQNKRSQRPNKCSNPCP
Turning to B5, in the assay with RAG−/− (C57BL/6) mice, the weight loss result is on record as “did significantly worse” and the “histology of duodenal sections” value is “marked mononuclear cell infiltration of villous processes; also recorded: extensive mononuclear cell recruitment”.
